Assay results taken from patent US20240368617A1, “NPR1 VARIANT TO ENHANCE PLANT RESISTANCE TO BIOTIC AND ABIOTIC STRESSES AND METHOD THEREOF” (Duke University, published 2024).

Columns and labels:
Experiment in all cases: EMSA
TGA3 (Asn87-Thr384) = biological target: T1, TGA3 (Asn87-Thr384) (Arabidopsis thaliana, UniProt Q39234 Q39234:87-384); conditions: tags: His10-MBP (PreScission site) N-terminal, C-terminal tandem Flag-HA; AT1G22070; E. coli; label: 6-FAM
T1 sequence: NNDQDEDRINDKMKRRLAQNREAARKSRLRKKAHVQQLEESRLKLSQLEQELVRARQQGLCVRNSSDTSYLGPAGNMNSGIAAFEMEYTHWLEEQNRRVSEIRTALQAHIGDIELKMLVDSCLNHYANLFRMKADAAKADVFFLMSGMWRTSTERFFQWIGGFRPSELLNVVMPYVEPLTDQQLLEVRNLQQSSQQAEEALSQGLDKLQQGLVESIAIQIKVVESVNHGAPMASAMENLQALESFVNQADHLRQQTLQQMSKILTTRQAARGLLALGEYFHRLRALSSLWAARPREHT
Protocol: (§1) The npr1(dim) mutant (L49D/F53D/V56D/V83K) was cloned into the pTrcHis vector (Thermo Fisher Scientific) as a His10-MBP fusion protein containing a PreScission protease site following MBP and a C-terminal Strep tag, and was expressed and purified similarly to the WT NPR 1 protein. Purified TGA3 (Asn87-Thr384) at a concentration of 0.6 μM and WT NPR1 or the npr1(dim) mutant at a concentration of 8 μM were used in the EMSA with the 6-fluorescein (6-FAM)-labelled oligonucleotide probes (200 nM) containing the LS5 and LS7 as-I cis-elements of the SA-responsive PRI gene promoter (LS5/LS7, 6-FAM-C-ggg[…]ggg) or DNA sequences with the two as-1 regions replaced with adenosines (LS5/LS7, 6-FAM-C-ggg[…]ggg), with the LS7 as-1 element replaced with adenosines (LS5/LS7, 6-FAM-C-ggg[…]-GAggg) or with the LS5 as-1 element replaced with adenosines (LS5/LS7, 6-FAM-C-ggg[…]ggg) as well as their complementary oligonucleotides (Integrated DNA Technologies). The uppercase bases indicate the LS5/LS7 sequence; the lowercase bases indicate overhangs outside the LS5/LS7 sequence; and bases replaced with adenosines are indicated with A's in the small capital font. Pairs of complementary DNA strands were annealed before the binding reaction. For each binding reaction, the desired protein combination was mixed with the target DNA probe together with 30 ng/μL of poly (dI-dC) (non-specific competitor, Thermo Fisher Scientific) in a binding buffer containing 20 mM HEPES (pH 8.0), 300 mM NaCl, 10% glycerol, 1 mM DTT and 0.2 mM SA. […] After electrophoresis, the gel was scanned with the Typhoon FLA 7000 imager (GE Healthcare).

NPR1 = NPR1 (Arabidopsis thaliana, UniProt P93002 SEQ:1-593); conditions: tags: His10-MBP (PreScission site) N-terminal, C-terminal Strep tag; E. coli; chain copies: 2 (stated); label: 6-FAM
Protocol: as §1

[1] = biological target: TGA3 (Asn87-Thr384) + NPR1 complex (Arabidopsis thaliana, UniProt Q39234;P93002 Q39234:87-384,P93002:1-593); conditions: tags: TGA3-Flag-HA; NPR1-Strep; chain copies: TGA3 dimer x2 + NPR1 dimer (stated); label: 6-FAM
Protocol: as §1

B1: PR1 promoter LS5/LS7 (dsDNA)
DNA 1: GGGCTATGACGTAAGTAAAATAGTGACGTAGAGAGGG
DNA 2: CCCTCTCTACGTCACTATTTTACTTACGTCATAGCCC
binding result (TGA3 (Asn87-Thr384)): binds
binding result (NPR1): no binding
binding result [1]: binds
